Earlier results in paper PMC6551275.

Molecular target: UBQLN2 UBA (Homo sapiens) (UniProt Q9UHD9)
Sequence (Q9UHD9 578-624): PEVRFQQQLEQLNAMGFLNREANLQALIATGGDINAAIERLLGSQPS

Chain of UBQLN2 UBL (Q9UHD9 33-107): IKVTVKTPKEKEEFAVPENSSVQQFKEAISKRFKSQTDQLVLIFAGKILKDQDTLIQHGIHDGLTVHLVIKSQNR

Kd: 175 µM
Substance: UBQLN2 UBL (from UniProt Q9UHD9)
